Measured values from publication PMC11259706 (The Journal of Biological Chemistry, 2024).
Primed or numbered codes have the meaning given here. Where no end group is shown, it is not given here. 5FAM′ = 5-carboxyfluorescein; Ahx = NCCCCCC(=O)O

How the values were obtained:
full-length PP5 [1] = target: T1, full-length PP5 (Homo sapiens, UniProt P53041); assay: Fluorescence polarization (FP) saturation binding of fluorescent tracers; details: for direct binding of tracer relative to natural sequence: FP direct binding, n = 4
T1 construct: His-tag with TEV cleavage site (N, cleaved yes); made in house; host or cells: Escherichia coli BL21 (DE3)
T1 sequence (P53041 1-499): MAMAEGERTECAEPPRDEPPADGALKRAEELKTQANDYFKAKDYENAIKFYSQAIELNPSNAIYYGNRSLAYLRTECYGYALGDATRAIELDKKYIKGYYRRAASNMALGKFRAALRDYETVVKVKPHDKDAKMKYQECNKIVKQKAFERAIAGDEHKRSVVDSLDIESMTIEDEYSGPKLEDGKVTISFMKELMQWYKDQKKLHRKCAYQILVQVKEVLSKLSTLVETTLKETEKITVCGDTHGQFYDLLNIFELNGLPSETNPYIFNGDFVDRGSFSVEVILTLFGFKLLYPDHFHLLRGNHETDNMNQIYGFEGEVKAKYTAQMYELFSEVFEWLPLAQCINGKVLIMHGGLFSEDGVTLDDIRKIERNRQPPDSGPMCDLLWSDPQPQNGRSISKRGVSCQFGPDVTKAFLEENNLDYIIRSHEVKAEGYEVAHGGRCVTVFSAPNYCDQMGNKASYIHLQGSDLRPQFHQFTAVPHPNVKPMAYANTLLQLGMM
Method: (§1) These probes were stored as 10 mM DMSO stocks at −30 °C. […] Each well received PP5 (5 μl) from a 3-fold dilution series prepared using the assay buffer. […] The plate was shielded from light and allowed to incubate at room temperature for 15 min, a duration determined to reach equilibrium during assay development. All experiments were conducted in 384-well, black, low-volume, round-bottom plates (Corning; catalog number = 4511). […] Data analysis was carried out using GraphPad Prism 6.

full-length PP5 [2] = target: T1, full-length PP5; assay: FP competition studies; type: binding; details: for affinity relative to natural MEEVD in competition FP: acetylated pentapeptides competing with Hsp90 tracer, n = 4
Method: as §1
Samples were incubated for 5 min prior to measurements. Results were analyzed as above.

PP5 = target: T2, PP5 (Homo sapiens, UniProt P53041); assay: pNPP colorimetric phosphatase assay; type: biochemical; details: peptide 100 μM
T2 construct: His-tag with TEV cleavage site (N, cleaved yes); made in house; host or cells: Escherichia coli BL21 (DE3)
T2 sequence (P53041 1-499): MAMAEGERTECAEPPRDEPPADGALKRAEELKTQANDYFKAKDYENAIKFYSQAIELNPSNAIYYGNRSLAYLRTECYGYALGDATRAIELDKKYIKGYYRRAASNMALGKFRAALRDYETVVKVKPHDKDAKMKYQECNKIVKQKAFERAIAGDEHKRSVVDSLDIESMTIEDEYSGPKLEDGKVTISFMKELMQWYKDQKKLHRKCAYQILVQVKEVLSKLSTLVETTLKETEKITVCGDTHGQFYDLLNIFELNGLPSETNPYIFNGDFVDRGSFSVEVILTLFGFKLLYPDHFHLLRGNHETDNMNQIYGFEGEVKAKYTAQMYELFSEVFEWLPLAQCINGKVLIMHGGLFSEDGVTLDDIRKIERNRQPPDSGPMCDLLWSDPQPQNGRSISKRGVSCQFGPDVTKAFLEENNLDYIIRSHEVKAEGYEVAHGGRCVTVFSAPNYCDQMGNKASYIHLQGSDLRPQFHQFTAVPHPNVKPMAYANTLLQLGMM
Method: To measure PP5’s enzyme activity, pNPP was used as substrate, as previously described ([24], [42]). Briefly, purified PP5 (1 μM) was incubated with peptides (100 μM) in 40 mM Hepes, 20 mM KCl, 5 mM MnCl2, and 1 mM DTT, pH 7.5 at 20 °C in 96-well microtiter plates (total volume 50 μl). Reactions were then initiated by addition of the pNPP substrate at concentrations from 0 to 60 mM. After 30 min, reactions were quenched with 2N NaOH (100 μl), and the release of p-nitrophenol was recorded at 410 nm (ε = 15,100 M − 1 cm−1) on a Molecular Devices M5 plate reader. Enzyme parameters (e.g., Km, kcat) were calculated using the Michaelis–Menten equation in Graphpad Prism 6.

[3] = target: protein phosphatase 5 (PP5), human, full-length (human) (UniProt P53041); assay: fluorescence polarisation; competition (Fig. 1B, C, E, F): unlabelled peptide varied, PP5 at a concentration equivalent to the Kd, tracer 20 nM (tracer not named for these panels), 5 min
HEK293T cells = assay: Global translation assay; type: cell-based; details: 50 μg/ml, compared to DMSO control, three independent replicates
Method: HEK293T cells (ATCC) were cultured in Dulbecco’s Modified Eagle Medium supplemented with 10% fetal bovine serum and 1% penicillin/streptomycin. These cells were maintained at 37 °C/5% CO2 in a humidified incubator. Cells were negative for mycoplasma contamination (MicroSeq; ThermoFisher Scientific) at the start of the experiments, and they were used without further authentication.
The global translation assay (Abcam; ab273286) was used to measure protein synthesis according to the manufacturer’s specifications. Briefly, in this method, O-propargyl-puromycin is used to trap actively translating ribosomes, followed by addition of a fluorescent Click probe, such that suppression of translational is measured as a decrease in fluorescence. HEK293T cells or HEK293T cells overexpressing FLAG-PP5 were cultured as above. Cells were incubated with the supplied protein label reagent and incubated for 24 h, after which the cells were washed with culture media and fixed/permeabilized for 15 min in the dark. Click reactions were carried out for 30 min, and the plate fluorescence measured at Ex/Em 494/521 nm in a SpectraMax M5 multimode plate reader.

[4] = target: T3, protein phosphatase 5 (PP5), human, full-length (human, UniProt P53041 1-499); assay: fluorescence polarisation; saturation binding: tracer 20 nM, 3-fold dilution series of PP5; 50 mM Hepes, 75 mM NaCl, 0.001% Triton X-100, pH 7.4; room temperature, 15 min; details: both partners purified
T3 construct: protein phosphatase 5 (PP5), human, full-length, expressed from a pMCSG7 vector; source: E. coli BL21 (DE3), purified (Ni-NTA, TEV cleavage, size-exclusion chromatography); not shown: His-tag, N-terminal, cleaved
T3 sequence (looked up): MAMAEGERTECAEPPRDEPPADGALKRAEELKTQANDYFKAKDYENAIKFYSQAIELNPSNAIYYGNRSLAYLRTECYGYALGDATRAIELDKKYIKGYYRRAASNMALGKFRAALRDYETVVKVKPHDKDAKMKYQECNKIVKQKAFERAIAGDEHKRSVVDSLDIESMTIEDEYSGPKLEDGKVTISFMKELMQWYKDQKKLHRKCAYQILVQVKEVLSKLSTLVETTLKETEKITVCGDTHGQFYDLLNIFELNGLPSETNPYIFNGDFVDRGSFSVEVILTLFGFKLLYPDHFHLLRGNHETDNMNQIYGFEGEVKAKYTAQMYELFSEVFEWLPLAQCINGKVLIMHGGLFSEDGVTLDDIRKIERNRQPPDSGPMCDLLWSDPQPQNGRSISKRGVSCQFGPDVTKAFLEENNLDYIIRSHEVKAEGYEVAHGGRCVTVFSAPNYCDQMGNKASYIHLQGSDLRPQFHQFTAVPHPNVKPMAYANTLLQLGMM

[5] = target: T3, protein phosphatase 5 (PP5), human, …; assay: cell-based or functional assay
[6] = target: T4, protein phosphatase 5 (PP5), human, full-length (human, UniProt P53041 1-499); assay: FP
T4 chain: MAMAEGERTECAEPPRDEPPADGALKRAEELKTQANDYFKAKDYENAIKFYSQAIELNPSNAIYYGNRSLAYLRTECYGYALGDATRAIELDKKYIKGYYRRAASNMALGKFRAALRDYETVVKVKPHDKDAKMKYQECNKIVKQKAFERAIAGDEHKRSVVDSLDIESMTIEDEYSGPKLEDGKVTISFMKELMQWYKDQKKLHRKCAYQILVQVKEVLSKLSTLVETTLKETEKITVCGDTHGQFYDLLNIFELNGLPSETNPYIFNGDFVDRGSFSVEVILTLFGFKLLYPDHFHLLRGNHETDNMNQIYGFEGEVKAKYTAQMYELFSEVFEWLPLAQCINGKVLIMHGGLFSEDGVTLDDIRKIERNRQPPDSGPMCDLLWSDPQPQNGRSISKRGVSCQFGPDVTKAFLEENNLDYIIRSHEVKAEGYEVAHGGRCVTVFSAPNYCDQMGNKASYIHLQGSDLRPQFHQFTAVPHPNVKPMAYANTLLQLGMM

[7] = target: T3, protein phosphatase 5 (PP5), human, …; assay: fluorescence polarisation; competition with the Hsp90 tracer (Fig. 2C): PP5 at a concentration equivalent to the Kd, tracer 20 nM, 5 min; details: both partners purified

Molecule: 5FAM-AHX-WDDPD
- direct binding of tracer relative to natural sequence (full-length PP5 [1]): bound tighter than the natural sequence

Molecule: LSLLA
- competition with ELP1 tracer for binding to PP5 (full-length PP5 [2]; tracer 5FAM-AHX-LSLLD, unlabeled peptide, three independent experiments in technical triplicates): completely suppressed binding
- effect on PP5 enzyme activity (PP5; DMSO 1%): did not

Molecule: 5FAM-AHX-WDDID
- direct binding of tracer relative to natural sequence (full-length PP5 [1]): bound tighter than the natural sequence

Molecule: WEEVD [optimized acetylated pentapeptide]
- affinity relative to natural MEEVD in competition FP (full-length PP5 [2]): tighter affinity than the natural MEEVD

Molecule: WDDLD [optimized acetylated pentapeptide]
- affinity relative to natural MEEVD in competition FP (full-length PP5 [2]): tighter affinity than the natural MEEVD

Molecule: LSLLD [LSLLD]
- Kd (full-length PP5 [1]; restates Fig. 5B, measured with tracer 5FAM-AHX-LSLLD, read-out: Kd of ELP1 C-terminal motif for PP5's TPR domain (restated)): ~4 µM
- effect on Km of PP5 (PP5; pNPP substrate): both the kcat and Km were improved

Molecule: Hsp70 peptide with the P5 isoleucine replaced by alanine
- Ki [3]: 13.6 µM

Molecule: Ac-GSGPTAEEVD [Hsp70 peptide, P5 isoleucine mutation]
- Ki (full-length PP5 [2]; read-out: Ki, FP competition (truncations and alanine scan)): ~13.6 µM

Molecule: C[C@@H]1C[C@@H]([C@H](O)CC2CC(=O)NC(=O)C2)C(=O)[C@@H](C)C1 [cycloheximide]
- decrease in translation (HEK293T cells): 40%

Molecule: DSDSD (fluorescent label (tracer)) [fluorescent tracer of the U520 C-terminal five amino acids]
- Kd [4]: > 100000 nM

B1: fluorescent tracer of the DDCP C-terminal sequence WKPVD (peptide)
peptide: WKPVD
modifications: also: fluorescent label (tracer), position not given here
notes: the label DDCP could not be tied to an entry; Probably 5FAM-AHX-labelled like the ELP1 tracer; also called DDCP tracer; source: synthetic peptide
- Kd [4]: > 100000 nM

B2: Hsp70 tracer 5FAM-AHX-IEEVD (peptide)
peptide: {5FAM′-Ahx}-IEEVD
notes: also called Hsp70 IEEVD tracer; source: synthetic peptide, custom synthesized by GenScript
- Kd [4]: 941 ± 70 nM

B3: fluorescent tracer 5FAM-AHX-WEEVD (peptide)
peptide: {5FAM′-Ahx}-WEEVD
notes: also called WEEVD tracer; source: synthetic peptide
- Kd [4]: 15 ± 10 nM

B4: fluorescent tracer 5FAM-AHX-WDDVD (peptide)
peptide: {5FAM′-Ahx}-WDDVD
notes: also called WDDVD tracer; source: synthetic peptide
- Kd [4]: 17 ± 10 nM

Molecule: TMYFA (fluorescent label (tracer)) [fluorescent tracer of the AGO1 C-terminal five amino acids (negative control)]
- Kd [4]: > 100000 nM

Molecule: LSLLD [ELP1 C-terminal pentapeptide LSLLD (unlabelled)]
- kcat/Km of PP5 phosphatase activity on pNPP with peptide (100 μM); 0.49 μM^−1sec^−1 without peptide [5]: 1.28 μM^−1sec^−1

B5: ELP1 tracer 5FAM-AHX-LSLLD (peptide)
peptide: {5FAM′-Ahx}-LSLLD
notes: C-terminal five amino acids of elongator acetyltransferase complex subunit 1 (ELP1; IKBKAP); also called LSLLD tracer; source: synthetic peptide
- Kd [4]: 4400 ± 800 nM

Molecule: Ac-WDDVD [optimized acetylated pentapeptide WDDVD]
- kcat of PP5 phosphatase activity on pNPP with peptide (100 μM); 2.5-fold [5]: 0.24 s⁻¹
- Ki [6]: 30 nM

B6: optimized acetylated pentapeptide WDDLD (peptide)
peptide: Ac-WDDLD
notes: optimized EEVD-like pentapeptide from the PSSCL screen; source: synthetic peptide
- binding result [7]: binds

B7: optimized acetylated pentapeptide WDDID (peptide)
peptide: Ac-WDDID
notes: as for B6
- Ki [6]: 60 nM
- binding result [7]: binds

B8: optimized acetylated pentapeptide WDDPD (peptide)
peptide: Ac-WDDPD
notes: as for B6
- Ki [6]: 40 nM
- binding result [7]: binds

B9: fluorescent tracer 5FAM-AHX-WDDPD (peptide)
peptide: {5FAM′-Ahx}-WDDPD
notes: also called WDDPD tracer; source: synthetic peptide
- binding result [4]: binds

B10: fluorescent tracer 5FAM-AHX-WDDID (peptide)
peptide: {5FAM′-Ahx}-WDDID
notes: also called WDDID tracer; source: synthetic peptide
- binding result [4]: binds
